The nanobody polyreactivity screen of Harvey et al. (2022)

Assay: yeast display, Sf9 membrane polyspecificity reagent, FACS + sequencing; frameworks hold sequencing errors
Outline: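 A nanobody's polyreactivity label depends on the gate it was sorted from. Yeast display cells were stained with 10% biotinylated, detergent-solubilized Sf9 membrane reagent for 1 hour at 4 °C, enriched on streptavidin microbeads and sorted by FACS. The low and high (top ~1%) gates were set on anti-HA fluorescence for expression and streptavidin fluorescence for reagent binding.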

Row | Sequence | polyreactivity (PSR sort gate)
1 | QVQLVESGGGLVQAGGSLRLSSAASGSTFKYYAMGWYRPDPGKERELVAAIRTSGGRTYYADSVKGRFTISRDNAKNTVDLQMNSLKPEDSAVYFCNARYNQFGQRFDYWGQGSQVTVSS | high polyreactivity
2 | QVQLVESGGGIVQAGGSLRLSRAASGFTFPFYAMRWYRQAHGKERELVAAISQSGVRTYYADSVKGRFTISRDNAKNSVYLLMNSLKPEDTAVYYCAATSLNTRTGYWGQGTQVTVSS | high polyreactivity
3 | QVQLVESGGGLVQAGGSLRLSCAASGRIFFTNTMGWYRQAPGKERELVAAITRSGTRTYYADSVKGRFTISRDNAKNTVYLQMNSLKPEDTAVYYCNAVVRQLVRYDYWGQGTQVTVSS | high polyreactivity
4 | QVQLVESGGGLVQAGGSLRLSCAMGWYRPAPGKERELVAGITGGGRTHYADSVKGRFTISRDNAKNTVYLQMNSLKPEDTAVYYCAAGGVRSQVPWSWYYYWGQGTQVTVSS | low polyreactivity
5 | QVQLVESGGGLVQAGGSLRLSCAASGSTFAYYAMGWYRQAPGKERELVAAITWSGGRTYYADSVKGRFTISRDNAKNTVYLQMNSLKPEDTAVYYCAAGQQHSLFRVPQYRNRAFYYWGQGTQVTVSS | high polyreactivity
6 | QVQLVESGGGLVQAGGSLRLSCAASGRTSVLYAMGWYRQAPGKERELVAAISRDGSTNYADSVKGRFTISRDNAKNTVYLQMNSLKPEDTAVYYCAAEVRGSYYLTGYDYWGQGTQVTVSS | high polyreactivity
7 | QVQLVESGGGLVQAGGSLRISCAASGSIFRSNAMGWYRQAPGKEREMVAAISSSGGSTYYADSVKGRFTISRDNAKNTVYFQMNSLKPEDTAVYYCAAEVLSSDLFRPDSIVDYWGQGTQVNVSS | low polyreactivity
8 | QFQLVESGGGLVQAGGSLRLSCAASGSIYRLNTMGWYRQAPGKERELVAAMSRRGGSTYYADSVKGRFTISRDNAKNTVYIQMNSLKPEDTAVYYCSADVTSFRHAPGYEYWGQGTQVTVSS | high polyreactivity
9 | QVQLVESVGGLVQAGGSLRLSCAASGLTFGSYAMGWYRQAPGTDRELVAGINQSGGSTYYADSVKGRFTISRDNAKNTVSFQMNSLNPEDTAVYYCNAEAWVSQDWWQWVAYVYWGQGTQVTVSS | high polyreactivity
10 | QVQLVESGGGLVQAGGSLRLSCAASGSNFSYTMGWYRQAPGKERELVAAITSGGITYYADSVKRRFTISRDNAKNTVYLQMNCLKPEDTAVYYCNAYYPYGLASFYYWGQGTQVTVSS | low polyreactivity
11 | QVQLVESGGGLVQAGGSLRLSCAASGPTFSKANAMGWYRQAPVKERELVAAITDGGSTYADSVKGRFTISRDNAKNTVYLQINSLKPEDTAVYYCAKDTEVFYDASYDYWGQGTQVTVSS | low polyreactivity
12 | QVQLVESGGGLVQAGGSLRLSCAASGFTFPYNAMGWYRQAPGKERELVAAISSGDSTYYADSVKGRFTISRDNAKNTVYLQMKSLKPEDTAVYYCDAYPSLYYTKYDYWGQGTQVTVSS | high polyreactivity
13 | QVQLVESGGGLVQAGGSLRLSCAASGSTFVYYAMGWYRQAPGKERELVADISWSGGDTYYADSVKGRFTISRDNAKNTVYLQMNSLKPEDTAVYYCAAEWSTPSYVGFADGFEYWGQGTQVTVSS | low polyreactivity
14 | QVQLVESGGGLVQAGGSLRLSCAASGRTFSNYAMGWYRQAPGKERELVAAISQRGGSTYYADSVKGRFTISRDNAKITVYLQMNSLKPEDTAVYYCNALFRLRAYADMDYWGQGTQVTVSS | high polyreactivity
15 | QVQLVESGGGLVQAGGSLRLSCAASGSTFREYTMGWYRQAPGKEWDLVAAITNSGGSTYYADSVKGRFTISRDNAKNTVYLQMNSLKPEDTAVYYCAAEVGIVDYDYWGQGNQVTVSS | low polyreactivity
16 | QVQLVESGGGLVQAGGSLLLSCAASGRTSAYYAMGWYRQAPGKERELDAGITRGGRTNDADSVKWRFTISRDNAKYTDYFQMNSLNPEDTAVYYCAAKYGFYWNSRTSGYWGQVTQVTVSS | high polyreactivity
17 | QVQIVESGGGLVQAGGSLRLSCAASGITFRFYALGWYRQATGKERELVAAISWSGGSTNYADSVKGRFTISRDNAKNTVYLQMNSLKPEDTAVYYCNVVGKYYSGGTYEYWGQGTQVTVSS | high polyreactivity
18 | QVLLQESGGGLVQAGGSLRLSCAASGSIFLFYTMGWNRQAPVKEREFVAGITLGTTTYNADSVKGRFTISRDNVKNTVYLQKNSLKPEDTAVYYCAVAVGHYTEFWYWGQGTQVTMSS | high polyreactivity
19 | QVQLVESGGGLVQAGGSLRLSCAASGFTFSLYAMGWYRQAPGKERELVAAITWSGTRTYYADSVKGRFTISRDNAKNTVYLQMNSLKPEDTAVYYCATQGYGYRGWRNLYDYDYWGQGTQVTVSS | high polyreactivity
20 | QVQLVESGGGLVQAGGSLRLSCAASGSIFYINDMGWYRQAPGKERELVASINSSGDSTYYADSVKGRFTISRDNAKNTVYLQMNSLKPEDTAVYYCAADDGYPIQEYDYWGQGTQVTVSS | low polyreactivity
21 | HVQLVESGGGLVQAGGSLRLSCAASGRIYWANAKGRYRQAPGKERELVAAISYSGGTYYADSVKGGFTISRDNAKNTVYLQMNSLKPADTAVYFCAAVDRRDGTKRWGFDYWGQGTQVTVSS | high polyreactivity
22 | QVQLVESGGGLVQAGGSLRLSCAASGSIFQGNAMGWYRQAPGKERELVAAISWSGDSTYYADSVKGRFTISRDNAKNTVYLQMNSLKPEDTAVYYCNAEWTRDFYEYDYWGQGTQVTVSS | low polyreactivity

Row | Sequence | polyreactivity (PSR sort gate)
23 | QVQLVESGGGLVQAGGTLRLSCPASGSNFNRYAMGSYRKAPGKERELVAAISSTGSTFYADSVKWRFTISRDNAKITVYLQMNSLTPEDTAVYYCNADATHDWLRVDTYEYWGQGTQVTVSS | low polyreactivity
24 | QVHLVESGGGLVQAGGSLRLSCAASGSTIRYYAMGWYRQAPGKERELVAAITKSGGSTYYADSVKGRFTISRDNAKNTVYLQMNSLKPEDTAVYYCAAFRRWYYPALSEHDYWGQGTQGTVSS | low polyreactivity
25 | QVQLVESGGGLVQAGGSLRLSCAASGRIFKNYAMGWYRQAPGKERELVAAISWSGGRTYYADSVKGRFTISRDYAKNTVYLQMNSLKPEDTAVYYCASAARRGPTSIEPFGYGSWGQGTQVTVSS | high polyreactivity
26 | QVQLVESGGGLVQAGGSLRLSCAASGNIFSTYAMGWYRQAPGKERELVASISENGGSTYYADSVKGRFTISRDNAKNTVYLQMNSLKPEDTAVYYCNADAYVYFDDGDYWGQGTQVTVSS | low polyreactivity
27 | QVQLVESGGGFVQAGGSLRISCAASGRTFYPYAMGWYRQAPGKERELVAAISRSGGGTYYADSVKGRFTISRDNAKNTVYLQMNSLKPEDTAVDYCAADDGVAIYDYWGQGTQVTVSS | low polyreactivity
28 | QVQLVESGGGLVQAGGSLRLSCAASGSTFYPYAMGWYRPAPGKERELVAGITSSGGSTYYADSVKGRFTISRDNAKNTVYLQMISLKPEDTAVYYCNAYIDALPVSYQYDYWGQGTQVTVSS | low polyreactivity
29 | QVQLVESGGGLVQAGGSLRLSCAASGRIFQYNAMGWYRQAPGKERELVAAIRRGGGSTYYADSVKGRFTISRDNAKNTVYLQMNSLKPEDTAVYYCAADASSQIWYYPRDDYWGQGTQVTVSS | low polyreactivity
30 | QVQLVESGGGLVQAGGSLRLSCAASGSIFKNYAMGWYRQAPGKERELVATISSGDSTYYADSVKGRFTISRDNAKNTVYLQMNSLKPEDTAVYYCNTTEHNYVSSFEYGYWGQGTHVTVSS | low polyreactivity
31 | QVQLVESGGGLVQAGGSLRLSCAASGLIFSRYVMGWYRQAPGKERELVAAISRSGGSTYYADSVKGRFTISRDIAKNTVYLQMNSLKPEDTAVYYCNAGRRTGRYGYWGQGTQVTVSS | high polyreactivity
32 | QDQLVESGGGLLQAGGSLRLSCAASGYTFPIYAMGWYRQAPGKERELVAGISKNGGSTYYADSVKGRFTISRDNAKNTVYLQMNSLKPEDTEVYYCNASAWGRPYYRGSYFVFPGYEYWGQGTQVTVSS | low polyreactivity
33 | QVQLVESGGGLVQAGGSLRLSCAASGRIFKSYAMGWYRQAPGKERELVAIIRSSGTTYYADSVKGRFTISRDNAKNTVYLQMNSLKPEDTAVYYCNADGYPLGDKYDYWGQGTQVTVSS | high polyreactivity
34 | QVQLVESGGGLVQAGGSLRLSCAASGSTFNDYDMGWYRQAPGNERELVAAISSGGSTYYADSVKGRFTISRDNAKNTVYLQMNSLKPEDTAVYYCAAVLGVWGGVGSEGDFWGQGTQVTVSS | low polyreactivity
35 | QVQLVESGGGLVQAGGSLRLSCAASGRTLYKYAMGWYRQAPGKERELVATISSGGRTNYADSVKGRFTISRDNAKNPVYLQMNSLKPEDTAVYYCAADVVRYYYTYDYWGQGTQVTVSS | low polyreactivity
36 | QVQLVESGAGLVQAGGSLGLSCAASGFTFRTYAMGWYRQAPGKERELVADISGSGGSTYYADSVKGRFTISRYNAKNTVYLQMISLKPEDTAVYYCAGTIYNWGYERDYWGQGTQVTVSS | high polyreactivity
37 | QVQLVESGGGLVQAGVSLRLSFAASGSTFRGYAMGWYRQAPGKEREVVAAISSRGARTHYAHSVKGRFTISRDNAKNTVYLQMYSLKPVDTAVNYCNKRQVFVSTGEYEFDYCGQGTQVTVSS | low polyreactivity
38 | QVQLVESGGGLVQAGGSLRLSCAASGYTLDGYAMGWYRQAPGKERDFVAAITFRGGGTYYADSVKGRFTISRDNSKNTVYLQMISLKPEDSAVYYCNADTYDPFPWGSDYWGQGTQVNVSS | high polyreactivity
39 | QVQLVESGGGLVQAGGSLRLSCAASGSTFVVYAMGWYRQAPGKERELVAAITGSGGSTYYADSVKGRFTISRDNAKNTVYLQMNSLKPEDTAVYYCAADLYFYVISWGYGFYYWGQGTQVTVSS | low polyreactivity
40 | QVQLVESGGGLVQAGGSLRLSCAASGLTFAYYAMGWYSQAPGKEREMVASINSGGSTNYADSVKGRFTISRDNAKNTVYLLMNSLKPEDTAVYYCAADWATWWYTYDFWGQGTQVTVSS | high polyreactivity
41 | QVQLVESGGGLVQAGGSLRLSCAASGLTFSYYAMGWYRQAPGKERELVAAITSGGNTNYADSVKGRFTISRDNAKNTVYLQMNSLKPEDTAVYYCAARFYFTRSFPRKFYYWGQGTQVTVSS | high polyreactivity
42 | QVQLVESGGGLVQAGGSLRLRCAASGFTFRYYAMGWYRQAPGKERELVASTYYADSVKGRFTISRDNAKNTVYLQMNSLKPEDTAVYYCNVDGTSSSPFVQKHKEMDYWGQGTQVTVSS | low polyreactivity
43 | QVQLVESGGGLVQAGGSLRLSCAASGRTLVVNDMGWYRQAPGKERELVADINWSGGRTYYADSVKGRFTISRDNAKNTVYLQMNSLKPEDTAVYYCAADLSWRQYYREYDYWGQGTEVTVSS | high polyreactivity
